Experimental findings from doi:10.1101/2023.12.12.571217 (2023) are described below.

Test [1] concerns the target T1, N-terminally biotinylated PADI4 (bio-His-PADI4), recombinant human peptidylarginine deiminase IV (human, UniProt Q9UM07 1-663, biotin on the N-terminal Avi-Tag (BirA co-expression)). Description: SPR; 10 mM CaCl2. (In SPR one partner is held on a chip, and binding of the other changes the refractive index at the surface.)
For a further test, the target named is PADI4_N373A. The test can be described thus: SPR.
The target of test [2] is T1, N-terminally biotinylated PADI4 …. Description: SPR.
Test [3] has the same target. The test can be described thus: SPR; 0 mM CaCl2.
Another test addresses PADI4 variant C166F (human, UniProt Q9UM07 1-663, C166 with bulky phenylalanine). The test can be described thus: SPR.
The next test concerns the target PADI4_D165A (human, UniProt Q9UM07 1-663, D165A). Description: SPR.
The target of test [4] is T1, N-terminally biotinylated PADI4 …. The test can be described thus: SPR. This is another data set of the same source.
The target in a further test is PADI4 variant R394A (human, UniProt Q9UM07 1-663, R394 with an alanine). Description: SPR.
PADI4 variant R394A, sequence (Q9UM07 whole entry R394A): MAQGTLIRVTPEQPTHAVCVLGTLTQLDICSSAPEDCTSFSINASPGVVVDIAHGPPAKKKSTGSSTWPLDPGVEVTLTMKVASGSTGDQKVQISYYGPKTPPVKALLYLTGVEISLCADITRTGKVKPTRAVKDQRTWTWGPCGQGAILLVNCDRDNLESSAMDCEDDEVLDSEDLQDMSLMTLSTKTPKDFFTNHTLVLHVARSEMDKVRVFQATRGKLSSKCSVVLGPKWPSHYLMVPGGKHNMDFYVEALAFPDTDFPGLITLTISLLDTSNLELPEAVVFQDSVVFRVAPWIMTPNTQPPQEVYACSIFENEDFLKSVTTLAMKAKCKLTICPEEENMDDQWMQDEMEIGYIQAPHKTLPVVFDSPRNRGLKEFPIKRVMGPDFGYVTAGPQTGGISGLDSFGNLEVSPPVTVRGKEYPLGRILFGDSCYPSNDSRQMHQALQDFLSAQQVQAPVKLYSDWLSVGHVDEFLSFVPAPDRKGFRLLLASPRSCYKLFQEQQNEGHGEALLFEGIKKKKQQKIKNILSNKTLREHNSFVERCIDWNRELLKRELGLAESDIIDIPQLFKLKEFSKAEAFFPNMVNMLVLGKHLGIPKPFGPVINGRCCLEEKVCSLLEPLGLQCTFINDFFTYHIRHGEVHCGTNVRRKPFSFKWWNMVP
The next test addresses PADI4 variant D168A (human, UniProt Q9UM07 1-663, D168A). Description: SPR.
Another test addresses PADI4 variant E167A (human, UniProt Q9UM07 1-663, E167A). Description: SPR.
For test [5], the target named is T1, N-terminally biotinylated PADI4 …. Description: SPR; 10 mM CaCl2 + Cl-amidine.

Positions of bridges follow the written chain, without caps; N, C: chain ends. A value given as a limit tells only on which side of the number the result lay.

Broadly, the Kd is the equilibrium constant for the complex coming apart.

T1 sequence (Q9UM07 whole entry): as the sequence (Q9UM07 whole entry R394A) above, with A394R counted along it
PADI4_D165A, sequence (Q9UM07 whole entry D165A): as the sequence (Q9UM07 whole entry R394A) above, with D165A, A394R counted along it
PADI4 variant D168A, sequence (Q9UM07 whole entry D168A): as the sequence (Q9UM07 whole entry R394A) above, with D168A, A394R counted along it
PADI4 variant E167A, sequence (Q9UM07 whole entry E167A): as the sequence (Q9UM07 whole entry R394A) above, with E167A, A394R counted along it
PADI4 variant C166F, sequence (Q9UM07 whole entry C166F): as the sequence (Q9UM07 whole entry R394A) above, with C166F, A394R counted along it

B1: PADI4_11 (peptide)
chain: {CH2CO}-YESCRYRQVLQL-NH2
modifications: thioether N-4
SMILES: CC(C)C[C@H](NC(=O)[C@H](CCC(N)=O)NC(=O)[C@H](CC(C)C)NC(=O)[C@@H](NC(=O)[C@H](CCC(N)=O)NC(=O)[C@H](CCCNC(=N)N)NC(=O)[C@H](Cc1ccc(O)cc1)NC(=O)[C@H](CCCNC(=N)N)NC(=O)[C@@H]1CSCC(=O)N[C@@H](Cc2ccc(O)cc2)C(=O)N[C@@H](CCC(=O)O)C(=O)N[C@@H](CO)C(=O)N1)C(C)C)C(N)=O
As to B1, the Kd is 457 nM in test [1]; over 10000 nM with PADI4_N373A; 500 nM in [2]; over 5000 nM in test [3]; over 10000 nM with PADI4 variant C166F; 3000 nM with PADI4_D165A. Moreover, the Kd in [4] was 457 nM; with PADI4 variant R394A, over 10000 nM; with PADI4 variant D168A, 4000 nM; in the test with PADI4 variant E167A it was 700 nM; in [5], 382 nM.

Consider {CH2CO}-YESCRYKQVLQL-NH2 (thioether N-4) [PADI4_11 variant with lysine at R7], for which the Kd in [2] was determined as 700 nM.

As for {CH2CO}-YESCKYRQVLQL-NH2 (thioether N-4) [PADI4_11 variant with lysine at R5], in test [2], the Kd amounted to 1400 nM.
